Experimental data reported in the nanobody polyreactivity screen of Harvey et al. (2022).

Experiment: yeast display, Sf9 membrane polyspecificity reagent, FACS + sequencing; frameworks hold sequencing errors
Summary of the method: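 A nanobody's polyreactivity label depends on the gate it was sorted from. Yeast display cells were stained with 10% biotinylated, detergent-solubilized Sf9 membrane reagent for 1 hour at 4 °C, enriched on streptavidin microbeads and sorted by FACS. The low and high (top ~1%) gates were set on anti-HA fluorescence for expression and streptavidin fluorescence for reagent binding.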

Question: For “QVQLVESGGGLVQAGGSLRITCAASGSTFATYTIGWYRQPPGKEMELVAAISVSGSRTYADSVKGRFTISRDNAKNSVYLQMNSLKPEDTAVYYCAPRNYSVASYGEYDYWGQGTQVTVSS”, which “polyreactivity (PSR sort gate)” value is on record?
Answer: high polyreactivity

Question: With “QVQLVESGGGLVQAGGSLRKSCAASGIIFAYYALGCSRQAPGKERELGAAISSDGSTNYADSVKGRFTISRDNAKNSVYLQMNILKPVDTAVYYCAAKAYLYHWFEMYYWGQGTQVTVSS” as the sequence, how does the “polyreactivity (PSR sort gate)” value read?
Answer: high polyreactivity

Question: For “QVQLVESGGGLVQAGGSLRKTCAASVRIFHYYAMGWYRQAPGKERELVAAINKSGGRTYYADSVKGRFTISRDNAKNTFYLQMNSLKPEDTAVYYCAAQDGYLGQGTQVTVSS”, which “polyreactivity (PSR sort gate)” value is on record?
Answer: high polyreactivity

Question: With “QVQLVESGGGLVQAGGSLRLALLPPDLPSTLNDMGLYRQAPGKERELVAAITRGGSTNYADSVKGRFTISRDNAKNTVYLQMNSLKPEDTADYYCAAPYAGWRDGGDYWGQGTQVTVSS” as the sequence, how does the “polyreactivity (PSR sort gate)” value read?
Answer: low polyreactivity

Question: For “QVQLVESGGGLVQAGGSLRLCCAAAGSTFVYYAMGSYRAAPGNERELVAAIRNGDGTNYADSVKGRFTISRDNAKNTVYLQMNSLKPEDTAVYYCAAPQGEYFYVYEFDYWGQGTQVTVSS”, which “polyreactivity (PSR sort gate)” value is on record?
Answer: low polyreactivity

Question: Which “polyreactivity (PSR sort gate)” value does the source give for “QVQLVESGGGLVQAGGSLRLCCAASGFTFPYNGMGWYRQAPGKERELVASISWSGASTYYADSVKGRFTISRDNAKNTVYLQMNSLKPEDTAVYYCAADPGYYSWGCSQDDYWGQGTQVTVSS” here?
Answer: low polyreactivity

Question: Which “polyreactivity (PSR sort gate)” value does the source give for “QVQLVESGGGLVQAGGSLRLCCAASGFTFSYYAMGGYRQAPGKERELVAAISRSGGRTYYADSVKGRFTISRDHAKNTVYVQMNSLKPEDTAVYSCAGVYFGSIFVLEYDYWGQGTQVTVSS” here?
Answer: high polyreactivity

Question: With “QVQLVESGGGLVQAGGSLRLCCAASGITFALNAMRWYRQAPGNERELLAAISWSGDSTYYADSVKGRITIARDNAKNTVYLQMNSLKPEDTAVYYCAAVAYLNWTPHYYWGQGTQVTVSS” as the sequence, how does the “polyreactivity (PSR sort gate)” value read?
Answer: low polyreactivity

Question: Which “polyreactivity (PSR sort gate)” value does the source give for “QVQLVESGGGLVQAGGSLRLCCAASGSTFTLYAMGWYSQAPGKVRELVAAISWSTTSTYYAHSVKGRFTISRDNAKNTVSLQMNSLKPEDTAVYYCAAELYRAEYDYWGQGTQVTVSS” here?
Answer: high polyreactivity

Question: Which “polyreactivity (PSR sort gate)” value does the source give for “QVQLVESGGGLVQAGGSLRLCCAASGSTFYYYAMGWYRQAPGKEREFVASISSRGTSTYYADSVKGRFTISRDNAKNTVYLQLNSLKPEDTAVYYCAARGWGPTRAYDYSGQGTQVTVSS” here?
Answer: high polyreactivity

Question: For “QVQLVESGGGLVQAGGSLRLFCAASGRIFSAYAMGLYRQAPGKERELVAGISSRGGSTYYADSVKGRFTISRDNAKNTVYLQMNSLKPEDTAVYYCAKPYGRRYGRLHDYWGQGTQVTVSS”, which “polyreactivity (PSR sort gate)” value is on record?
Answer: high polyreactivity

Question: Which “polyreactivity (PSR sort gate)” value does the source give for “QVQLVESGGGLVQAGGSLRLGCAASGGTITSYAMGWYRQAPGKERELVAAITVSGSSTYYADSVKGRFTISRDNAKNTVYLQMNSLKPEDTAVYYCAARWRRFQFDYWGQGTQVTVSS” here?
Answer: high polyreactivity

Question: Which “polyreactivity (PSR sort gate)” value does the source give for “QVQLVESGGGLVQAGGSLRLGCAASGITFTPYAMGWYRQAPGKERELVAAISWRGGSTYYADSVKGRFTISRDNAKNTVYLQMNSLKPEDTAVYFCAKDGRGYGRYSRYYTGDYWGQGTQVTVSS” here?
Answer: low polyreactivity

Question: For “QVQLVESGGGLVQAGGSLRLICAACGFTLTGYTMGWYRQAPGKERELVAAITSRGGTTYYADSVKGRFTISRDNAKYTVYLQMNSLKPEDTAVYYCNVVYPYLEYDYWGQGTQVTVSS”, which “polyreactivity (PSR sort gate)” value is on record?
Answer: high polyreactivity

Question: For “QVQLVESGGGLVQAGGSLRLICAASGATFYFYAMGWYREAPGKERELVAAISKRGTSTYYADSVKWRFTISRDNAKNTVYLQLTSLKPEDTAVYFCAADAPRGYNYWGQGTQVTVSS”, which “polyreactivity (PSR sort gate)” value is on record?
Answer: high polyreactivity

Question: With “QVQLVESGGGLVQAGGSLRLICAASGFIFDWNTMGWYRQAPGKEREMVAAISWSGAGTYYADSVKGRFTISRDNAKNTVYLQMNSLKPEDTAVYYCNAVRANGQASQEGEYWGQGTQVTVSS” as the sequence, how does the “polyreactivity (PSR sort gate)” value read?
Answer: high polyreactivity

Question: With “QVQLVESGGGLVQAGGSLRLICAASGFIFRNYARGWYRQAPGKERELVAAITRSGTSTYYADSVKGRFTISRDNAKNTVYLQMNSLKPEDTAVYYCNAGWGLRLSWLGNYWGQGTQVTVSS” as the sequence, how does the “polyreactivity (PSR sort gate)” value read?
Answer: high polyreactivity

Question: For “QVQLVESGGGLVQAGGSLRLICAASGFIFTPYAMGWYRQAPGKERELVAAITWRGARTYYADSVKGRFTISRDNAKNTVYLQMNSLKPEDTAVYYCAVAYWNRQSLFRMYYWGQGTQVTVSS”, which “polyreactivity (PSR sort gate)” value is on record?
Answer: high polyreactivity

Question: With “QVQLVESGGGLVQAGGSLRLICAASGFIFYPYAMGWYRQAPGKERELVAVITSGGRTYYADSVKGRFTISRDNAKNTVYLQMNSLKPEDTAVYYCNADTFQWWDIADVYVIVKYGYWGQGTQVTVSS” as the sequence, how does the “polyreactivity (PSR sort gate)” value read?
Answer: low polyreactivity

Question: Which “polyreactivity (PSR sort gate)” value does the source give for “QVQLVESGGGLVQAGGSLRLICAASGFIITRNAMVWYRPAPGKERELGAVISYGGGSTYYADSVKGRFTISRDNAKNTVYLQMNSLKPEDTAVYYCAADPTWRYYYHYTYYYWGQGTQVTVSS” here?
Answer: high polyreactivity

Question: Which “polyreactivity (PSR sort gate)” value does the source give for “QVQLVESGGGLVQAGGSLRLICAASGFILKYNAMGWYRQAPGKERELVAAISSNGGRTYYADSVKGRFTISRDNAMNTVYLQMNSLKPVDTAVYYCAAGRLQPVLGGYWGQGTQVTVSS” here?
Answer: low polyreactivity

Question: Which “polyreactivity (PSR sort gate)” value does the source give for “QVQLVESGGGLVQAGGSLRLICAASGFTFAYYAMGWYRQAPGKERELVAAISSGGSTYYADSVKGRFTISRDNAKNTVYLQMNSLKPEDTAVYYCAARGGRPLIHHWPWYSWKYDYWGQGTQVTVSS” here?
Answer: low polyreactivity

Question: With “QVQLVESGGGLVQAGGSLRLICAASGFTFLTNAMGWYRQAPGKERELVAAISSGGNTNYADSVKGRFTISRDNAKNTVYLQMNSLKPEDTAVYYCAADNDYLSSQVSYYYWGHGTQVTVSS” as the sequence, how does the “polyreactivity (PSR sort gate)” value read?
Answer: low polyreactivity

Question: Which “polyreactivity (PSR sort gate)” value does the source give for “QVQLVESGGGLVQAGGSLRLICAASGFTFSVYAMGWYRQAPGKERELVAAITWRGGSTYYADSVKGRFTISRDNAKNTVYLQMNSLKPEDTAVYYCAVLYPKYGKRYGYWGQGTQVTVSS” here?
Answer: high polyreactivity

Question: Which “polyreactivity (PSR sort gate)” value does the source give for “QVQLVESGGGLVQAGGSLRLICAASGFTFVANAMGWYRPAPGKERELVAVIDWDEGSTYYADSVKGRFTISRDNAKNTVYLQMNSLKPEETAVYYCNADGYSPDRYDYYYRYYYWGQGTQVTVSS” here?
Answer: low polyreactivity

Question: With “QVQLVESGGGLVQAGGSLRLICAASGFTFWNYAMGWYRQAPGKERELVAAITWSGGITYYADSVKGRFTISRDNAKNTVYLQMNSLKPEDTAVYYCAAYPQYQPEWYYIEYDYWGQGTQVTVSS” as the sequence, how does the “polyreactivity (PSR sort gate)” value read?
Answer: low polyreactivity

Question: For “QVQLVESGGGLVQAGGSLRLICAASGFTFYLYTMGWYRQAPGKERELVAAISWRGGGTYYADSVKGRFTISRDNAKNTVYLQMNSLKPEDTEVYYCAAYWRRRLVYYYWGQGTQVTVSS”, which “polyreactivity (PSR sort gate)” value is on record?
Answer: high polyreactivity

Question: For “QVQLVESGGGLVQAGGSLRLICAASGFTFYYKAMGWYRPAHGKERELVAAISTGGSTYYADSVKGRFTISRDNAKNTVYLQMNSLKPEDTAVYYCARSLWTGGYGYYYWGQGTQVTVSS”, which “polyreactivity (PSR sort gate)” value is on record?
Answer: high polyreactivity

Question: With “QVQLVESGGGLVQAGGSLRLICAASGFTLGSNAMGWYRQAPGKERELVAAMSKSGGSTYYADSVKGRFTISRDNAKNTVYLQMNSLKPEDTAVYYCAARYLYQGYRYDYWGQGTQVTVSS” as the sequence, how does the “polyreactivity (PSR sort gate)” value read?
Answer: high polyreactivity

Question: For “QVQLVESGGGLVQAGGSLRLICAASGGIFGINAMGWYRPSPVKERELVAAINLSGGRTYYADSVKGRFTISRDNAKKTVYLLMNSLKPEDSAVYYCAAYYGYSLYGHYEYWGQGTQVTVSS”, which “polyreactivity (PSR sort gate)” value is on record?
Answer: high polyreactivity

Question: Which “polyreactivity (PSR sort gate)” value does the source give for “QVQLVESGGGLVQAGGSLRLICAASGGIFGSYAMGWYRQAPGKEREFVAAIRYGSGSTYYADSVKGRFTISRDNAKNTVYLQMNSLKPEDTAVYYCATEYWGVYGYGFIYDYWGQGTQVTVSS” here?
Answer: low polyreactivity

Question: Which “polyreactivity (PSR sort gate)” value does the source give for “QVQLVESGGGLVQAGGSLRLICAASGGTFYDYAMGWYRQAPGKERELVAAISASGDSTYYADSVKGRFTISRDNAKNTVYLQMNSLKPEDTAVYSCAAEFTAFDGFDYWGQGTQVTVSS” here?
Answer: low polyreactivity

Question: With “QVQLVESGGGLVQAGGSLRLICAASGIIFAWYVMGWSRQAPGKERELVAAITQSGGSTFYADSVKGRFTISRDNAKNTVYLQLNSLKPEDTAVYYCNTDYFFNVPEMDSWGQGTQVTVYS” as the sequence, how does the “polyreactivity (PSR sort gate)” value read?
Answer: low polyreactivity

Question: For “QVQLVESGGGLVQAGGSLRLICAASGIIFFRYAMGWYRQAPGKERELVASIRAIGGSTSYADSVKGRFTISRDNAKNTVYLQMNSLKPEDTAVFYCAARQNYRYGYWGQGTQVTVSS”, which “polyreactivity (PSR sort gate)” value is on record?
Answer: high polyreactivity

Question: Which “polyreactivity (PSR sort gate)” value does the source give for “QVQLVESGGGLVQAGGSLRLICAASGIIFLYYAMGWYRQAPGKEWELVAAISSGVSTYYADSVKGRFTISRDNAKNTVYLQLNSLKPEDTAVYYCNADYYQLNSGMYYWGQGTQVTVSS” here?
Answer: low polyreactivity

Question: With “QVQLVESGGGLVQAGGSLRLICAASGIIFYGYGMGWYRQARGKERELVAAITRSGGRTYYADSVKGRFTISRDNAKNTVYLQMNSLKPEDTAVYYCAAKRRTGGNGYWGQGTQVTVSS” as the sequence, how does the “polyreactivity (PSR sort gate)” value read?
Answer: high polyreactivity

Question: For “QVQLVESGGGLVQAGGSLRLICAASGIIFYVNAMGWYRQAPGKERELVAAITRGGTTYYADSVKGRFTISRDNAKNTVYLQMNSLKPEDTAVYYCAARLRYTTGIYYYWGQGTQVTVSS”, which “polyreactivity (PSR sort gate)” value is on record?
Answer: high polyreactivity

Question: Which “polyreactivity (PSR sort gate)” value does the source give for “QVQLVESGGGLVQAGGSLRLICAASGIIFYVYAMGWYRQAPGKERELVAAISFRGTSTYADSVKGRFTISRDNAKNTVYLQLNSLKPEDTAVYYCAVTGFDVLWPSLGGVLDYWGQGTQVTVSS” here?
Answer: low polyreactivity

Question: With “QVQLVESGGGLVQAGGSLRLICAASGITFYRNARGWYRQAPGKERELVAAITSGTSTYYADSVKGRFTISRDNAKFTVYLQMISLKPEDTAVYYCAKRTPPGYYGFDYWGQGTQVNVSS” as the sequence, how does the “polyreactivity (PSR sort gate)” value read?
Answer: low polyreactivity

Question: With “QVQLVESGGGLVQAGGSLRLICAASGLIFSYYAMGWYRQAPGKERELVAAISRGGSTNYADSVKGRFTISRDNAKNTVYLQMNSLKPEDTAVYYCAARFVVRRDYGYWGQGTQVTVSS” as the sequence, how does the “polyreactivity (PSR sort gate)” value read?
Answer: high polyreactivity

Question: Which “polyreactivity (PSR sort gate)” value does the source give for “QVQLVESGGGLVQAGGSLRLICAASGLIFVYYAMGWYRQAPGKERELVAAIDWSSTRTYYADSVKGRFTISRDNATNTVYLQMNSLKPEDTAVYYCAAESRYLSWFDYWGQGTQVTVSS” here?
Answer: high polyreactivity

Question: With “QVQLVESGGGLVQAGGSLRLICAASGLTFKQYVMGWYRQAPGKERELVAAIHNGTSTYYADSVKGRFTISRDNAKNTVYLQMNSLKPEDTAVYYCAADGLGFNTYDYWGQGTQVTVSS” as the sequence, how does the “polyreactivity (PSR sort gate)” value read?
Answer: low polyreactivity

Question: Which “polyreactivity (PSR sort gate)” value does the source give for “QVQLVESGGGLVQAGGSLRLICAASGLTFTYYAMGWYRQAPGKERELVATISSSGRTNYADSVKGRFTISRDNAKNTVYLQMNSLKPEDTAVYYCAATLYHYWYADFDYWGQGTQVTVSS” here?
Answer: high polyreactivity
